The text below walks through data of publication doi:10.1101/2022.03.14.484356 (bioRxiv, 2022).

This experiment deals with T1, recombinant RABL3 (human, UniProt Q5HYI8 1-236).
T1 sequence (looked up): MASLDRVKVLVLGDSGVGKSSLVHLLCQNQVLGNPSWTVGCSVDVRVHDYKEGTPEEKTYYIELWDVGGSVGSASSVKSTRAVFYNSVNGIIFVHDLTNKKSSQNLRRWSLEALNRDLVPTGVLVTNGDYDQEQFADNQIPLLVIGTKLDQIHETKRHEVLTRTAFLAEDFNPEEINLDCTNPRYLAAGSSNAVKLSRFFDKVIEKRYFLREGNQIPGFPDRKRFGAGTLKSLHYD
As to the kind of experiment: pull-down.

B1: recombinant GST-RAB11A (natural protein, human, UniProt P62491 1-216, looked up)
chain: MGTRDDEYDYLFKVVLIGDSGVGKSNLLSRFTRNEFNLESKSTIGVEFATRSIQVDGKTIKAQIWDTAGQERYRAITSAYYRGAVGALLVYDIAKHLTYENVERWLKELRDHADSNIVIMLVGNKSDLRHLRAVPTDEARAFAEKNGLSFIETSALDSTNVEAAFQTILTEIYRIVSQKQMSDRRENDMSPSNNVVPIHVPPTTENKPKVQCCQNI
In the case of B1, the binding result is recorded as “binds”.
